Assay results reported in PMC3299815 (Biochemistry, 2012).

Molecular target: the molecule itself
Assay: SEC

B1: Rv0203-notag (natural protein)
chain: AMAASDPCAASEVARTVGSVAKSMGDYLDSHPETNQVMTAVLQQQVGPGSVASLKAHFEANPKVASDLHALSQPLTDLSTRCSLPISGLQAIGLMQAVQGARR
- stoichiometry N: 2
